# Substitutions are numbered along the chain they refer to.
# T1: murine IL-18, mature, with C-terminal V5 and His tags (mouse, UniProt P70380 36-192)
# T1 construct: also called IL-18 mouse
# T1 sequence: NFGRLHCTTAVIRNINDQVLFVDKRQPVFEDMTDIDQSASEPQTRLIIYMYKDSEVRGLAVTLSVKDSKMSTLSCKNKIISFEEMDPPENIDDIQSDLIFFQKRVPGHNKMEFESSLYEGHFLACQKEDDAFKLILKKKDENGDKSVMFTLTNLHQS
# T2: human/murine IL-18 chimera in which C-terminal human IL-18 residues 92-193 were replaced by the corresponding … (human; mouse)
# T2 construct: Mature form after caspase-1 cleavage; also called human (37-91)/murine IL-18 chimera; not shown: C-terminal V5 and His tags and any linker to them
# T2 chain: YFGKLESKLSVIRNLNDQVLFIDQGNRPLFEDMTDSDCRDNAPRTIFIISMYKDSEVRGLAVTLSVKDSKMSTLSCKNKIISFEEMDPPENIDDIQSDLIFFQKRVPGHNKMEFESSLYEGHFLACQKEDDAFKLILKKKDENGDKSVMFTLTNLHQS
# T3: human/murine IL-18 chimera in which C-terminal human IL-18 residues 120-193 were replaced by the … (human; mouse)
# T3 construct: Mature form after caspase-1 cleavage; also called human (37-119)/murine IL-18 chimera; not shown: C-terminal V5 and His tags and any linker to them
# T3 chain: T2 chain with E56Q, V57P, L60M, L64I, D68C, S69E, M71I, K77E
# T4: human (37-176)/murine (174-192) IL-18 chimera (human; mouse, UniProt Q14116 37-188)
# T4 chain: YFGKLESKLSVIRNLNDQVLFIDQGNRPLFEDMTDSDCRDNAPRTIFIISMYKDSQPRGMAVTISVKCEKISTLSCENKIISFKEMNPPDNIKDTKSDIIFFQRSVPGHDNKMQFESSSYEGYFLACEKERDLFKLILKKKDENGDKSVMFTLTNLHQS
# B1: ABT-325, recombinant human immunoglobulin G1 (IgG1) monoclonal antibody specific for human IL-18 (antibody, V domains shown)
# VH: EVQLVQSGTEVKKPGESLKISCKGSGYTVTSYWIGWVRQMPGKGLEWMGFIYPGDSETRYSPTFQGQVTISADKSFNTAFLQWSSLKASDTAMYYCARVGSGWYPYTFDIWGQGTMVTVSS
# VL: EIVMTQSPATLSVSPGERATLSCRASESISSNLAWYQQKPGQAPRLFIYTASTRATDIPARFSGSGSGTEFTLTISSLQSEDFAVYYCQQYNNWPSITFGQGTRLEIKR
# notes: IgG1 kappa
# B2: 125-2H, neutralizing murine immunoglobulin G1 (IgG1) monoclonal antibody specific for human IL-18 (antibody, V domains shown)
# VH: EIQLQQSGPELVKPGASVKVSCKASGYSFTDYFIYWVKQSHGKSLEWIGDIDPYNGDTSYNQKFRDKATLTVDQSSTTAFMHLNSLTSEDSAVYFCARGLRFWGQGTLVTVSA
# VL: DIQMTQSPSSLSASLGERVSLTCRASQDIGSKLYWLQQEPDGTFKRLIYATSSLDSGVPKRFSGSRSGSDYSLTISSLESEDFVDYYCLQYASSPYTFGGGTKLAIKR
# notes: Murine IgG1
# Legend:
# [1] = target: recombinant human IL-18 (KG-1 bioassay) (human, UniProt Q14116 37-193); assay: cell-based or functional assay
# [2] = target: natural human IL-18 (whole blood assay) (human, UniProt Q14116 37-193); assay: cell-based or functional assay
# [3] = target: T5, mutant human IL-18 (mature form of pro-IL-18-5C→A, cysteines mutated to alanine) (human, UniProt Q14116 37-193); assay: method not stated (Biacore is named later in the paragraph)
# T5 construct: also called Mutant IL-18; pro-IL-18-5C→A after caspase-1 cleavage
# [4] = target: T1, murine IL-18, mature, with C-terminal …; assay: sandwich ELISA, capture by test antibody, detection by anti-tag antibody
# [5] = target: T2, human/murine IL-18 chimera in which …; assay: as above
# [6] = target: T3, human/murine IL-18 chimera in which …; assay: as above
# [7] = target: T4, human (37-176)/murine (174-192) IL-18 …; assay: as above
# [8] = target: T4, human (37-176)/murine (174-192) IL-18 …; assay: sandwich ELISA: tagged IL-18 chimera captured by the test antibody, detected with an anti-tag antibody
binder,measurement,setting,value
B1,"IC50, human myelomonocytic cell line KG-1 bioassay; IL-18Rα/β-driven IFN-γ production",[1],0.2 nM
same,"IC50, whole blood assay; LPS+IL-12-driven IFN-γ production",[2],~3 nM
same,Kd,[3],~0.2 nM
same,binding result,[4],no binding
same,binding result,[5],no binding
same,binding result,[6],no binding
same,binding result,[7],binds
B2,"IC50, human myelomonocytic cell line KG-1 bioassay; IL-18Rα/β-driven IFN-γ production",[1],0.2 nM
same,"IC50, whole blood assay; LPS+IL-12-driven IFN-γ production",[2],~3 nM
same,Kd,[3],~0.2 nM
same,binding result,[8],no binding

# — US20090202557A1 (published 2009)
